Assay results published in patent US20230218710A1 (COHBAR, published 2023).
Square brackets hold non-standard residues; d marks the D form. Primed or numbered codes have the meaning given here. Ends that are not written are not given here. PEG12′ = not defined here

Experiments:
Test in all cases: cell-based or functional assay
[1] = molecular target: T1, Apelin Receptor (APJ) stably overexpressed in CHO-K1 AGTRL1 Gi cells (UniProt P35414 1-380, limits assumed)
T1 sequence (looked up): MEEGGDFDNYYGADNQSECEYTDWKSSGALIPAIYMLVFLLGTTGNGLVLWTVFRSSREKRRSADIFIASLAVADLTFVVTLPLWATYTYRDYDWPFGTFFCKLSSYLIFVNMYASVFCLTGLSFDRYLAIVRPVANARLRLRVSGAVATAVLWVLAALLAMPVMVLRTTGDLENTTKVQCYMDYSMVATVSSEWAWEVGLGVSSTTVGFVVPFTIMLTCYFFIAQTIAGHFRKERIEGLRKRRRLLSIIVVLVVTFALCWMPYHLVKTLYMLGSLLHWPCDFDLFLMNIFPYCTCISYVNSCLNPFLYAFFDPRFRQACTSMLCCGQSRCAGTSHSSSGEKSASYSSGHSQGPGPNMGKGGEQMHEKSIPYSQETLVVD

[2] = molecular target: T1, Apelin Receptor (APJ) stably …; remark: listed apart in the source
[3] = molecular target: ProLink tagged human APJ (Apelin Receptor) in CHO-K1 AGTRL1 β-Arrestin cells (human, UniProt P35414 1-380)

Row | Binder | IC50 (M), inhibition of forskolin-stimulated cAMP accumulation [1] [M] | inhibition of forskolin-induced cAMP, Percent of Pyr-Apelin-13 Control Activity (10 µM peptide) [2] [%] | β-Arrestin recruitment, Percent of Apelin-13 Control Activity (10 µM peptide) [3] [%]
1 | MRRMMGMVFQCLCGL [SEQ ID NO: 7] | 1.24e-06 | 109 | 91
2 | RRMMGMVFQSLCG[dA] (also: acetate salt, HCl salt) [SEQ ID NO: 15] | 4.49e-06 | 105 | 40
3 | KRRMMGMVFQSLCGA ((PEG12) at the N-terminal K; C-terminal (dA) = D-alanine) [SEQ ID NO: 36] | 1.6e-06 | 101 | 63
4 | KRRLLGLVFQSLCGA ((PEG12) at the N-terminal K; C-terminal (dA) = D-alanine) [SEQ ID NO: 37] | 2.5e-06 | 53 | 12
5 | [PEG12′]KRRIIGIVFQCLCG[dA] (cysteine pairing not given here) [SEQ ID NO: 42] | 4.38e-06 | 33 | 8
6 | RRIIGIVFQSLCG[dA] [SEQ ID NO: 43] | 2.07e-06 | – | –
7 | RRMMGMVFQELCG[dA] [SEQ ID NO: 13] | – | 49 | 1
8 | RRMMGMVFQCLEG[dA] [SEQ ID NO: 14] | – | 39 | 0
